Assay results from the supplement of paper PMC9170038.

System: MS2 coat protein
Assay: apparent KD of MS2 coat protein; designed switch direction (-1 OFF switch, 1 ON switch): -1; higher = weaker reporter binding
Summary of the method: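 An oligonucleotide input, 200 uM small-molecule ligand, or no input was present during titration of SNAP-549-labelled MS2 coat protein, which was doubled from 0.7 or 1.5 nM to 3 µM. Designed RNA switches had been transcribed on Illumina chips by stalled E. coli RNA polymerase. Apparent KD per design is the median over clusters of curves fitted to normalised cluster fluorescence.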

[1] = Eterna round: R95, input ligand: FMN 200 uM
[2] = Eterna round: R95, input ligand: microRNA oligo, concentration not stated
[3] = Eterna round: R95, input ligand: none
[4] = input ligand: microRNA oligo, concentration not stated

| Sequence | apparent KD of MS2 coat protein [1] [nM] | apparent KD of MS2 coat protein [2] [nM] | apparent KD of MS2 coat protein [3] [nM] | apparent KD of MS2 coat protein (input ligand: FMN 200 uM) [nM] | apparent KD of MS2 coat protein (input ligand: none) [nM] | apparent KD of MS2 coat protein [4] [nM] |
| --- | --- | --- | --- | --- | --- | --- |
| AUAGCUCGUGUUAGGAUAUCCGCAUAUUUUACAUAGGAGAAGGAACAUGAGGAUCACCCAUGUAAUAGAAAAGA [Maenri] (puzzle: Brourd's mod of Exclusion 4) | 138 | 101 | 74.7 |  |  |  |
| AUAUAGAUAGUCAGGAUAUACUAGUGAUAACAGUAGUAGAAGGGACAUGAGGAUCACCCAUGUAGAUACUGCAC [Brourd's EX4 #2] (Eterna round: R97, puzzle: Brourd's mod of Exclusion 4) |  |  |  | 22.2 | 21.2 |  |
| AUAUAGCGAGGAUAUACAUGAGGAUCACCCAUGUGGUAGUAGAUACGGUAGAGAUAGUGUAGAAGGCGCUAUGA [EX3 #9] (Eterna round: R97, puzzle: Exclusion 3) |  |  |  | 226 | 233 |  |
| AUAUAGUCAGGAUAUCGAAAUAUAUAUUAAUAUAUAUAAUACGAGAAGGGACAUGAGGAUCACCCAUGUAGUAA [JR_Exclusion4)Sub001] (puzzle: Exclusion 4) |  | 23.7 |  |  |  |  |
| AUAUUGUGAGGAUAUGAACUUACUAUCGAAAGAUACUAAGUUCAGAAGGCACAUGAGGAUCACCCAUGUUUCUC [Long static hairpin v19] (Eterna round: R97, puzzle: Exclusion 4) |  |  |  | 664 | 76.1 |  |
| AUAUUGUGAGGAUAUGAACUUAGUAUGGAAAGAUACUAAGUUCAGAAGGCACAUGAGGAUCACCCAUGUUUCUC [Long static hairpin v12] (Eterna round: R97, puzzle: Exclusion 4) |  |  |  | 34 | 26.9 |  |
| AUAUUUAGCUUUUUGUGAAACAUGAGGAUCACCCAUGUCCUCAUAACUGGACAUUUAAGUCUAGAAGCUCGUCUUAU [Last end dangle 3] (Eterna round: R97, puzzle: Sensor, turn-off variant 1) |  |  |  | 475 | 553 |  |
| AUCAGCUCGUCAGGAUAUACAUGAGGAUCACCCAUGUGAUCAAUAGCAGCUUCGGCUGCAUUAAUGUAGAAGGGACGAGCUGAU [ENG2/5-B3] (Eterna round: R96, puzzle: Exclusion NG 2) |  |  |  | 175 | 407 | 75 |
| AUCAGCUCGUGAGGAUAUACAUGAGGAUCACCCAUGUGAUCAAUAGCAGCUUCGGCUGCAUACAUGUAGAAGGCACGAGCUGAU [ENG2/6-A3] (Eterna round: R96, puzzle: Exclusion NG 2) |  |  |  | 95.6 | 135 | 19.9 |
| AUCAGUCUAGAGGAUAUGCUGGAUUAAUAUCUGGCAGAAGGCUGGACAUGAGGAUCACCCAUGUAAAUACUACC [Omei Ex6 A4] (Eterna round: R97, puzzle: Exclusion 6) |  |  |  | 156 | 55 |  |
| AUCAUGCAGUAGGAUAUCGAUCCACAAUAUGAACGAGAAGGGCUGACAUGAGGAUCACCCAUGUGCGUCCGAAG [Becebe] (Eterna round: R97, puzzle: Exclusion 6) |  |  |  | 16.7 | 19 |  |
| AUCAUGUGAGGAUAUGUGAUCAACCUUCUAUAUAGAUGAUGACAGAAGGCACAUGAGGAUCACCCAUGUAGAUC [Ex4 - 3 - 20] (puzzle: Exclusion 4) |  | 45.1 |  |  |  |  |
| AUCCGGCAUGUAGGAUAUGGAUCCGAUUAGGAUCCAGAAGGACAUGAGGAUCACCCAUGUACAUGUAAACAGUCAUCACCGGAC [salish99_ExNG1_r04_201] (Eterna round: R96, puzzle: Exclusion NG 1) |  |  |  | 462 | 67.3 | 50.2 |
| AUCGUGCAGCAAAGCUGUACGAGUACAUGAGGAUCACCCAUGUAGGAUAUGGUACGCAAAGCGUGCUAGAAGGAUAUGAGAUUA [Mat - Exclusion NG 3 - Mod of JL - D97] (Eterna round: R96, puzzle: Exclusion NG 3) |  |  |  | 38.1 | 57.7 | 32.6 |
| AUCGUGCAGCUUUGCUGUACGAGUACAUGAGGAUCACCCAUGUAGGAUAUGGUACGCUUUGCGUGCCAGAAGGACGUGCGUUAG [salish99_ExNG3_r04_003] (Eterna round: R96, puzzle: Exclusion NG 3) |  |  |  | 63.2 | 43.7 | 34.3 |
| AUCGUGUGAGGAUAUCGAUGUUGGACGUCUAGGUCUAAGCGCGAGAAGGCACAUGAGGAUCACCCAUGUAAUGG [jl-ex4-4.27 ViennaUCT mod] (Eterna round: R97, puzzle: Exclusion 4) |  |  |  | 249 | 910 |  |
| AUGGGUCCUCACGGAGCUACAUGAGGAUCACCCAUGUGGAUUGAGGAUAUCCACUGCCGACGGCUGGAGAAGGCAGUUUACUGU [Ex NG3 #94] (Eterna round: R96, puzzle: Exclusion NG 3) |  |  |  | 57.5 | 49.9 | 36 |

| Sequence | apparent KD of MS2 coat protein [1] [nM] | apparent KD of MS2 coat protein [2] [nM] | apparent KD of MS2 coat protein [3] [nM] | apparent KD of MS2 coat protein (input ligand: FMN 200 uM) [nM] | apparent KD of MS2 coat protein (input ligand: none) [nM] | apparent KD of MS2 coat protein [4] [nM] |
| --- | --- | --- | --- | --- | --- | --- |
| AUGUGAUUGGCUCUGAGACAUGAGGAUCACCCAUGUGGAGCGCAGGAUAUCCGAACCGUGAAGGCGGAGAAGGGCGUCGUGGUA [Zasorequer] (Eterna round: R96, puzzle: Exclusion NG 3) |  |  |  | 39.6 | 26 | 20.5 |
| AUGUGGGUAAGAAGGUGAAGAUAGAGCGUACGUUAUGGAACAUGAGGAUCACCCAUGUAGCUUUUUGCUCGUCUUAU [JR_SV3TOV2_Sub033] (puzzle: Sensor v3, turn-off variant 2) | 17.6 | 61.8 | 18.2 |  |  |  |
| AUGUUACUCUGAGGAUAUUGUUUAUUCUUCUCACAUGAGGAUCACCCAUGUUUCCAUGUUAACCGCAAGAAGGCAGUUUUGUUU [JR_ExcNG2_Sub029] (Eterna round: R96, puzzle: Exclusion NG 2) |  |  |  | 46.1 | 36.3 | 24.5 |
| AUUAAUCAGCAGGAUAUAAGUAUCUGAAGGUGGUUAGAAGGGCUGACAUGAGGAUCACCCAUGUGCUCUUCGUG [Vevetigeat] (puzzle: Exclusion 6) |  | 12.4 |  |  |  |  |
| AUUAUAAAUGUAGGAUAUCUGCACGUGUAGUGCAGAGAAGGACAUGAGGAUCACCCAUGUAGAUCAAUAAUAAUUAAUUUAAUU [ENG1/5-B3] (Eterna round: R96, puzzle: Exclusion NG 1) |  |  |  | 223 | 49.2 | 33.4 |
| AUUAUGUUAGGAUAUGCUUAUGGUGGAUAGUCCAGUAUGGUGCAGAAGGGACAUGAGGAUCACCCAUGUGCUGA [EX4 #32] (Eterna round: R97, puzzle: Exclusion 4) |  |  |  | 50.9 | 52.8 |  |
| AUUGAAUGAAACCUCUAAUACAUGAGGAUCACCCAUGUUAUCGAGGAUAUGCAGAAUAGAUUAGAGCAGAAGGCGAAGUAAUAU [JR_ExcNG3_Sub024] (Eterna round: R96, puzzle: Exclusion NG 3) |  |  |  | 17.7 | 12.8 | 9.67 |
| AUUGACUGAGGAUAUUGUACUGCUGACAUGAGGAUCACCCAUGUAUGUUAACUCGGCCGUCGAGAAGGCAGAAAUG [BotMod 21 - Jieux - Exclusion 5] (Eterna round: R97, puzzle: Exclusion 5) |  |  |  | 18.4 | 34.8 |  |
| AUUGAUGUUGAGGAUAUGCUUUUAUUUAUUCUUGCAGAAGGCGAUACAUGAGGAUCACCCAUGUUCAUGGAAGU [JR_E6_Sub091] (puzzle: Exclusion 6) |  | 30.7 |  |  |  |  |
| AUUGGUUUGCGAGGAUAUGCUAAUAGUAAGUAUGCAGAAGGCGCGUUACAUAGAACCUCUAGUUACAUGAGGAUCACCCAUGUU [JR_ExcNG1_Sub038] (Eterna round: R96, puzzle: Exclusion NG 1) |  |  |  |  |  | 40.9 |
| AUUGUUUAUGUAGGAUAUGCCUGGCGUGCCUUUGCAGAAGGACAUGAGGAUCACCCAUGUAUUGCGGUCUGCGUUCAGAUCGCA [salish99_ExNG1_r4_032] (Eterna round: R96, puzzle: Exclusion NG 1) |  |  |  |  |  | 25 |
| AUUUAAUUUAGCGAGAUCACAUGAGGAUCACCCAUGUAUAUAUAGGAUAUCAGCUCGAUUAGAGCUGAGAAGGAUAUAUACCGC [ExNG3/7-A1] (Eterna round: R96, puzzle: Exclusion NG 3) |  |  |  | 170 | 82 | 98.7 |
| AUUUAGAGAGGAUAUAUAAAGUGAAACAUGAGGAUCACCCAUGUAAUUUUAUGGAUGUAAAUAGAAGGCUCAUUUU [Mat - Exclusion 5 - JL mod - D3] (puzzle: Exclusion 5) |  | 36.5 |  |  |  |  |
| AUUUAGUGAGGAUAUGGUAACGUUUACAUGAGGAUCACCCAUGUUUCAUGGGACUAGAGACUAGAAGGCACUAACG [JR_Ex5_Sub029] (Eterna round: R97, puzzle: Exclusion 5) |  |  |  | 291 | 306 |  |
| AUUUUAAUAUAGGAUAUCGAAUUUAUUAAUUAUCGAGAAGGAUAAACAUGAGGAUCACCCAUGUGGUAUCAUGG [Mat - Exclusion 6 - JL Mod - D38] (puzzle: Exclusion 6) |  | 226 |  |  |  |  |
| AUUUUGUCAGGAUAUUAGUAGUAAAUAAAUAAAAUUAUUACUGAGAAGGGACAUGAGGAUCACCCAUGUGUCUU [Salish 062 v9] (Eterna round: R97, puzzle: Exclusion 4) |  |  |  | 39.5 | 18.3 |  |
| CAAACACUGGUCCAAGCACACAUGAGGAUCACCCAUGUCGCCACAUAGGCGCCGGGAAUUAAGCUUCCGUUCGUCUG [Eternabot (L2) Solution 14] (Eterna round: R97, puzzle: Sensor, turn-off variant 1) |  |  |  | 113 | 150 |  |
